Article PMC11871066 (2025)

Target: Negative control peptide 2014 (1907 with L145E and L152E) (UniProt P49023 141-153, S143 (i,i + 7 staple position), i,i + 7 all-hydrocarbon staple as in 1907)
Assay: SPR

- Kd: > 200 µM
B1: Biotinylated AviTag FAK FAT protein (domain or fragment)
chain: MAAAYLDPNLNHTPNSSTKTHLGTGMERSPGAMERVLKVFHYFESNSEPTTWASIIRHGDATDVRGIIQKIVDSHKVKHVACYGFRLSHLRSEEVHWLHVDMGVSSVREKYELAHPPEEWKYELRIRYLPKGFLNQFTEDKPTLNFFYQQVKSDYMLEIADQVDQEIALKLGCLEIRRSYWEMRGNALEKKSNYEVLEKDVGLKRFFPKSLLDSVKAKTLRKLIQQTFRQFANLNREESILKFFEILSPVYRFDKECFKCALGSSWIISVELAIGPEEGISYLTDKGCNPTHLADFTQVQTIQYSNSEDKDRKGMLQLKIAGAPEPLTVTAPSLTIAENMADLIDGYCRLVNGTSQSFIIRPQKEGERALPSIPKLANSEKQGMRTHAVSVSETDDYAEIIDEEDTYTMPSTRDYEIQRERIELGRCIGEGQFGDVHQGIYMSPENPALAVAIKTCKNCTSDSVREKFLQEALTMRQFDHPHIVKLIGVITENPVWIIMELCTLGELRSFLQVRKYSLDLASLILYAYQLSTALAYLESKRFVHRDIAARNVLVSSNDCVKLGDFGLSRYMEDSTYYKASKGKLPIKWMAPESINFRRFTSASDVWMFGVCMWEILMHGVKPFQGVKNNDVIGRIENGERLPMPPNCPPTLYSLMTKCWAYDPSRRPRFTELKAQLSTILEEEKAQQEERMRMESRRQATVSWDSGGSDEAPPKPSRPGYPSPRSSEGFYPSPQHMVQTNHYQVSGYPGSHGITAMAGSIYPGQASLLDQTDSWNHRPQEIAMWQPNVEDSTVLDLRGIGQVLPTHLMEERLIRQQQEMEEDQRWLEKEERFLKPDVRLSRGSIDREDGSLQGPIGNQHIYQPVGKPDPAAPPKKPPRPGAPGHLGSLASLSSPADSYNEGVKLQPQEISPPPTANLDRSNDKVYENVTGLVKAVIEMSSKIQPAPPEEYVPMVKEVGLALRTLLATVDETIPLLPASTHREIEMAQKLLNSDLGELINKMKLAQQYVMTSLQQEYKKQMLTAAHALAVDAKNLLDVIDQARLKMLGQTRPH
modifications: biotin (biotinylated AviTag)
